Our source for the Kd values is publication PMC2735045.

For the data set, the target named is CsrA-His6 (Escherichia coli, UniProt P69913 1-61). Briefly: EMSA.

What is called Kd is the constant that tells how readily two partners part at equilibrium.

CsrA-His6, sequence (P69913 whole entry): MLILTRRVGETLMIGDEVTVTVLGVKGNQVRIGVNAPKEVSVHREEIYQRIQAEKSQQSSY

B1: ycdT transcript (-36 to +20) (ssRNA)
RNA: GGGAAAGGGAUCUACAACCUACAGAUUGGUGUAGCUUUAUGGAAAAAGACUAUUUGAG
B1 showed a dissociation constant (Kd) of 2.6 ± 0.3 nM.

B2: ydeH transcript (-29 to +25) (ssRNA)
RNA: GGGCACAAGGAACUGUGAAAAAGGAGUGGCAAUGAUCAAGAAGACAACGGAAAUUG
In turn, B2 showed an equilibrium dissociation constant (Kd) of 2.3 ± 0.1 nM.
